Laboratory results: paper PMC12299999

Target: HA-Foldon (HA1-521 fused at the C-terminus to the bacteriophage T4 fibritin trimerization motif) (influenza A or B virus (strain not stated for this experiment) | bacteriophage T4)
Assay: native gel or EMSA

## HA-Foldon (HA1-521 fused at the C-terminus to the bacteriophage T4 fibritin trimerization motif)
  stoichiometry N: 3
